Experimental data taken from paper PMC9198058.

Legend:
[1] = target: Catalytically inactive recombinant S195A thrombin mutant (UniProt P00734); test: other fluorescence titration
[2] = target: Nα-fluoresceinated hirugen ([F]-hirugen); test: other fluorescence titration

| Substance | increase of [F]-hirugen fluorescence on displacement [1] | Kd [2] |
| --- | --- | --- |
| Hirugen (54…*LQ65) (peptide) | 65% |  |
| Catalytically inactive recombinant S195A thrombin mutant (from UniProt P00734 44-622) (enzyme) |  | 0.03 µM |
